Measured values from patent publication US20120058906A1 (published 2012).
Substitutions are numbered along the chain they refer to. Names and notes keep the numbering of the source.

What was measured:
[1] = biological target: T1, rHuman ErbB2/Fc Chimera, CF (R&D Systems Cat#1129-ER) (human, UniProt P04626 23-652); assay: ECL (MSD multi-spot), antigen spotted on plate; Fab 1000 nM; blank 760
T1 construct: Bought protein; also called HER2/neu; human epidermal growth factor 2 receptor; Fc part of the bought chimera not given

[2] = biological target: T2, rHuman EGF R/Fc Chimera, CF (R&D Systems Cat#344-ER) (human, UniProt P00533 25-645); assay: as above
T2 construct: Bought protein; also called epidermal growth factor receptor; Fc part of the bought chimera not given

[3] = biological target: T3, rHuman CD44/Fc Chimera, CF (R&D Systems Cat#3660-CD) (human, UniProt P16070 21-220); assay: as above
T3 construct: Bought protein; Fc part of the bought chimera not given

[4] = biological target: T4, Recombinant Human DLL4 (R&D Systems Cat#1506-D4/CF) (human, UniProt Q9NR61 27-524); assay: as above
T4 construct: Bought protein; also called rHuman DLL4; delta-like protein 4

[5] = biological target: T5, rHuman Erythropoietin R/Fc Chimera, CF (R&D Systems Cat#963-ER) (human, UniProt P19235 25-250); assay: as above
T5 construct: Bought protein; also called EPO R/Fc; Epo R; Fc part of the bought chimera not given
T5 sequence: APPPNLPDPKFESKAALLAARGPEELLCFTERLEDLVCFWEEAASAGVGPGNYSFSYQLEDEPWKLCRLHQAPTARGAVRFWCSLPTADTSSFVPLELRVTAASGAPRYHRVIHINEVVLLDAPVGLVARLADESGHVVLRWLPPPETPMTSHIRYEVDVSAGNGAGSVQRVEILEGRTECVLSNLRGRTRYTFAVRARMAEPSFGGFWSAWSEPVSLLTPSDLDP

[6] = biological target: T6, rHuman Notch-1/Fc Chimera, CF (R&D Systems Cat#3647-TK) (human, UniProt P46531 19-526); assay: as above
T6 construct: Bought protein; Fc part of the bought chimera not given

[7] = biological target: T7, rHuman IGF-1 sR (IGF-1 sR), CF (R&D Systems Cat#391-GR) (human, UniProt P08069 31-932); assay: as above
T7 construct: Bought soluble receptor; also called insulin-like growth factor-1 soluble receptor; IGF-R1

[8] = biological target: T8, rHuman P-Cadherin/Fc Chimera, CF (R&D Systems Cat#861-PC) (human, UniProt P22223 108-654); assay: as above
T8 construct: Bought protein; also called CDH3; Fc part of the bought chimera not given

[9] = biological target: T9, rHuman HGF R/c-MET/Fc Chimera, CF (R&D Systems Cat#358-MT/CF) (human, UniProt P08581 25-932); assay: as above
T9 construct: Bought protein; also called HGF R/Fc; hepatocyte growth factor receptor; Fc part of the bought chimera not given

[10] = biological target: T1, rHuman ErbB2/Fc Chimera, CF (R&D …); assay: ECL (MSD multi-spot), antigen spotted on plate; Fab 10 nM; blank 550
[11] = biological target: T2, rHuman EGF R/Fc Chimera, CF (R&D …); assay: as above
[12] = biological target: T3, rHuman CD44/Fc Chimera, CF (R&D Systems …); assay: as above
[13] = biological target: T4, Recombinant Human DLL4 (R&D Systems …); assay: as above
[14] = biological target: T5, rHuman Erythropoietin R/Fc Chimera, CF …; assay: as above
[15] = biological target: T6, rHuman Notch-1/Fc Chimera, CF (R&D …); assay: as above
[16] = biological target: T7, rHuman IGF-1 sR (IGF-1 sR), CF (R&D …); assay: as above
[17] = biological target: T8, rHuman P-Cadherin/Fc Chimera, CF (R&D …); assay: as above
[18] = biological target: T9, rHuman HGF R/c-MET/Fc Chimera, CF (R&D …); assay: as above
[19] = biological target: T10, rHuman IGF-1 sR, CF (R&D Systems Cat#391-GR) (human, UniProt P08069 31-932); assay: ECL (MSD Multi-Spot) binding, antigen spotted on plate; Fab 10 nM
T10 construct: Bought soluble receptor; also called insulin-like growth factor-1 soluble receptor; IGF-R1

[20] = biological target: T11, rHuman Erythropoietin R/Fc Chimera, CF (R&D Systems Cat#963-ER) (human, UniProt P19235 25-250); assay: as above
T11 construct: Bought Fc chimera; also called EPO R/Fc; erythropoietin receptor; Fc part of the bought chimera not given
T11 sequence: T5 sequence

[21] = biological target: T12, rHuman CD44/Fc Chimera, CF (R&D Systems Cat#3660-CD) (human, UniProt P16070 21-220); assay: as above
T12 construct: Bought Fc chimera; Fc part of the bought chimera not given

[22] = biological target: T13, rHuman ErbB2/Fc Chimera, CF (R&D Systems Cat#1129-ER) (human, UniProt P04626 23-652); assay: as above
T13 construct: Bought Fc chimera; also called human epidermal growth factor 2 receptor; HER2/neu; Fc part of the bought chimera not given

[23] = biological target: T14, rHuman Notch-1/Fc Chimera, CF (R&D Systems Cat#3647-TK) (human, UniProt P46531 19-526); assay: as above
T14 construct: Bought Fc chimera; Fc part of the bought chimera not given

[24] = biological target: T15, Recombinant Human DLL4 (R&D Systems Cat#1506-D4/CF) (human, UniProt Q9NR61 27-524); assay: as above
T15 construct: Bought recombinant protein; also called delta-like protein 4

[25] = biological target: T16, rHuman EGF R/Fc Chimera, CF (R&D Systems Cat#344-ER) (human, UniProt P00533 25-645); assay: as above
T16 construct: Bought Fc chimera; also called epidermal growth factor receptor; Fc part of the bought chimera not given

[26] = biological target: T17, rHuman HGF R/c-MET/Fc Chimera, CF (R&D Systems Cat#358-MT/CF) (human, UniProt P08581 25-932); assay: as above
T17 construct: Bought Fc chimera; also called HGF R/Fc; hepatocyte growth factor receptor; Fc part of the bought chimera not given

[27] = biological target: T18, rHuman P-Cadherin/Fc Chimera, CF (R&D Systems Cat#861-PC) (human, UniProt P22223 108-654); assay: as above
T18 construct: Bought Fc chimera; Fc part of the bought chimera not given

[28] = biological target: T10, rHuman IGF-1 sR, CF (R&D Systems …); assay: ECL (MSD Multi-Spot) binding, antigen spotted on plate; Fab 1000 nM
[29] = biological target: T11, rHuman Erythropoietin R/Fc Chimera, CF …; assay: as above
[30] = biological target: T12, rHuman CD44/Fc Chimera, CF (R&D Systems …); assay: as above
[31] = biological target: T13, rHuman ErbB2/Fc Chimera, CF (R&D …); assay: as above
[32] = biological target: T14, rHuman Notch-1/Fc Chimera, CF (R&D …); assay: as above
[33] = biological target: T15, Recombinant Human DLL4 (R&D Systems …); assay: as above
[34] = biological target: T16, rHuman EGF R/Fc Chimera, CF (R&D …); assay: as above
[35] = biological target: T17, rHuman HGF R/c-MET/Fc Chimera, CF (R&D …); assay: as above
[36] = biological target: T18, rHuman P-Cadherin/Fc Chimera, CF (R&D …); assay: as above
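Further: blank spot per well as comparator with Hit at signal to blank ratio of 4 or more.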

B1: Fab VH1-46_IGHD6-6*01_IGHJ1*01_S103P & L6_IGKJ1*01 (Fab, V domains shown)
VH: QVQLVQSGAEVKKPGASVKVSCKASGYTFTSYYMHWVRQAPGQGLEWMGIINPSGGSTSYAQKFQGRVTMTRDTSTSTVYMELSSLRSEDTAVYYCAREEYSPSSAEYFQHWGQGTLVTVSS
VL: not shown
notes: Expressed in E. coli as a Fab; CH1 with Flag and His tags comes from Plasmid A and the kappa CL from Plasmid C; also called IGHV1-46*01; IGHJ1*01 S103P with IGKV3-11*01
[1]
  ECL signal: 1280
[2]
  ECL signal: 1910
[3]
  ECL signal: 1220
[4]
  ECL signal: 29800
[5]
  ECL signal: 1510
[6]
  ECL signal: 1210
[7]
  ECL signal: 1340
[8]
  ECL signal: 1380
[9]
  ECL signal: 1360
[10]
  ECL signal: 847
[11]
  ECL signal: 773
[12]
  ECL signal: 746
[13]
  ECL signal: 55100
[14]
  ECL signal: 802
[15]
  ECL signal: 792
[16]
  ECL signal: 814
[17]
  ECL signal: 846
[18]
  ECL signal: 859

B2: Fab VH1-46_IGHD6-6*01_IGHJ1*01_S102A & L6_IGKJ1*01 (Fab, V domains shown)
VH: B1 VH with S102A, P103S
VL: not shown
notes: Fab made in E. coli; The heavy chain also carries the CH1 with Flag and His tags of Plasmid A, and the light chain the kappa constant region of Plasmid C
[19]
  ECL signal: 657
[20]
  ECL signal: 761
[21]
  ECL signal: 681
[22]
  ECL signal: 670
[23]
  ECL signal: 647
[24]
  ECL signal: 38700
[25]
  ECL signal: 677
[26]
  ECL signal: 698
[27]
  ECL signal: 691
[28]
  ECL signal: 1170
[29]
  ECL signal: 1320
[30]
  ECL signal: 1090
[31]
  ECL signal: 946
[32]
  ECL signal: 1250
[33]
  ECL signal: 22200
[34]
  ECL signal: 1600
[35]
  ECL signal: 1660
[36]
  ECL signal: 1500
